According to patent US20240182536A1 (MURAL ONCOLOGY, published 2024):
Like-named read-outs stand apart in the source and are kept apart here.

Assays:
[1] = biological target: T1, interleukin 18 binding protein (IL-18BP) (UniProt O95998 31-194); test: cell-based or functional assay
T1 sequence (looked up): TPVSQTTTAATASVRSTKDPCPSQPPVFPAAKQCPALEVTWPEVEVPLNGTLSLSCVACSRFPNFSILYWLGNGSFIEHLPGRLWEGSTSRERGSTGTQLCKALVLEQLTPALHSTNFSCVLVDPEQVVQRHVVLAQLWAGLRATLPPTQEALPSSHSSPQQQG

[2] = biological target: T2, human IL-18 binding protein (IL-18BP) (human, UniProt O95998 31-194); test: Octet BLI
T2 construct: also called hu IL-18BP; hIL18BP
T2 sequence (looked up): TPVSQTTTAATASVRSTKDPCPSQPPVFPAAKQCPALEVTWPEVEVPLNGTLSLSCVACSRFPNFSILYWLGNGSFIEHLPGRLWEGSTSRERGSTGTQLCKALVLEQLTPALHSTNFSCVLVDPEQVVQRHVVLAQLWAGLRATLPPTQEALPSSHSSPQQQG
Procedure: (§1) Octet 96red instrument was used to determine affinities of IL18 proteins to BP or receptors. 5-10 ug/ml analyte proteins were used for loading on Sartorius tips (AHC or SA). […] 120-180 s loading, 200 s association and 800 s dissociation were used for kinetics. 3-7 data points were used to calculate affinities.
Select G3/K53-substitution containing IL-18 variants and select G3/K53/N91-substitution containing TL-18 variants were tested for activity in the HEK-blue activity assay and for binding affinity to IL-18BP. As shown in the data of Table 15 and Table 16 below, each variant had similar or better activity than WT IL-18, and retained substantial activity in the presence of IL-18BP.

[3] = biological target: T3, IL-18 receptor (IL-18Rα and IL-18Rβ) (UniProt Q13478 19-541; O95256 20-599, limits assumed); test: cell-based or functional assay
T3 sequence (looked up) 1: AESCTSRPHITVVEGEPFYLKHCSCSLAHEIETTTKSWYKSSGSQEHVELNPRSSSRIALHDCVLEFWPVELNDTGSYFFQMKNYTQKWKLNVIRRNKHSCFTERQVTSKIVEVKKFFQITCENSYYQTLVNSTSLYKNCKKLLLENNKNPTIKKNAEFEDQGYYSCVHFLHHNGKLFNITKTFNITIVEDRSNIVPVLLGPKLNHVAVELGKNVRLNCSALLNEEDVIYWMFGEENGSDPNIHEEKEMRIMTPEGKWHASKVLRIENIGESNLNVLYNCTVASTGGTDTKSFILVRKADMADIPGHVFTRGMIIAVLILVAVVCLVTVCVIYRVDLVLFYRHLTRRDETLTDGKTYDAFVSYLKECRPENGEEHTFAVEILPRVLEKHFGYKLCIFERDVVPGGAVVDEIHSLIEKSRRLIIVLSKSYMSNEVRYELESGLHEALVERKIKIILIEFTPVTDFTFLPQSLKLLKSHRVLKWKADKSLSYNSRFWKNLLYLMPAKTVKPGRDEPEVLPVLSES
T3 sequence (looked up) 2: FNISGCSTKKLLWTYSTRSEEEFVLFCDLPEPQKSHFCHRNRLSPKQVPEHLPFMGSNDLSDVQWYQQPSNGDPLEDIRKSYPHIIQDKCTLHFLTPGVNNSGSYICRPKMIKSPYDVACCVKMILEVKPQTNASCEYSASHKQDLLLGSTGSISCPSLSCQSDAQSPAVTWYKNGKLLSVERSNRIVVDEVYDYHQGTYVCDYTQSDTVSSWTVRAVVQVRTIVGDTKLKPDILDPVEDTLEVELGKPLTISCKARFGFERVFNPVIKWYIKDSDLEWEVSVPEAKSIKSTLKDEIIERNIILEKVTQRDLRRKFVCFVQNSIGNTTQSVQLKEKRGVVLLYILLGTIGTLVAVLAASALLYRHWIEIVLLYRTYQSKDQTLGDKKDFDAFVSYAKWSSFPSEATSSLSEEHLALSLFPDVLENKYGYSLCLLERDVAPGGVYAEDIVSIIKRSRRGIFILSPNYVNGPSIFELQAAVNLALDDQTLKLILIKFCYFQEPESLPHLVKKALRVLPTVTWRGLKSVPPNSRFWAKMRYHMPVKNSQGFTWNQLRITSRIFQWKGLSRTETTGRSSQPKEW

[4] = biological target: T2, human IL-18 binding protein (IL-18BP); test: cell-based or functional assay
[5] = biological target: T4, IL-18 receptors on HEK-Blue IL-18 reporter cells (InvivoGen) (UniProt Q13478 19-541; O95256 20-599); test: cell-based or functional assay
T4 sequence (looked up) 1: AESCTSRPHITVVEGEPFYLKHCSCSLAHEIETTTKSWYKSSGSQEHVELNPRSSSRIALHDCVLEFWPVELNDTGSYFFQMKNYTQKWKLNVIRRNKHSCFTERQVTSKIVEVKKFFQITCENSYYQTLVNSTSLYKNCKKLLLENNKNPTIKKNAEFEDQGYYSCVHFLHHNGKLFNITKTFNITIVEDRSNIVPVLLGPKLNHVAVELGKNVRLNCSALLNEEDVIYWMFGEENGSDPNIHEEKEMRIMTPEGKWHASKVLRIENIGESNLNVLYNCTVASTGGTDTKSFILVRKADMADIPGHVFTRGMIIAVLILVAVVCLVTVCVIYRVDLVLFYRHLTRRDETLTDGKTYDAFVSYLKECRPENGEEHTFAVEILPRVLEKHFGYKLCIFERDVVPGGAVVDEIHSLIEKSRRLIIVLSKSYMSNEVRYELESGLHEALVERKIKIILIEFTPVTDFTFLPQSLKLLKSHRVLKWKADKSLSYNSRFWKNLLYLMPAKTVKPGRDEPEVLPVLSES
T4 sequence (looked up) 2: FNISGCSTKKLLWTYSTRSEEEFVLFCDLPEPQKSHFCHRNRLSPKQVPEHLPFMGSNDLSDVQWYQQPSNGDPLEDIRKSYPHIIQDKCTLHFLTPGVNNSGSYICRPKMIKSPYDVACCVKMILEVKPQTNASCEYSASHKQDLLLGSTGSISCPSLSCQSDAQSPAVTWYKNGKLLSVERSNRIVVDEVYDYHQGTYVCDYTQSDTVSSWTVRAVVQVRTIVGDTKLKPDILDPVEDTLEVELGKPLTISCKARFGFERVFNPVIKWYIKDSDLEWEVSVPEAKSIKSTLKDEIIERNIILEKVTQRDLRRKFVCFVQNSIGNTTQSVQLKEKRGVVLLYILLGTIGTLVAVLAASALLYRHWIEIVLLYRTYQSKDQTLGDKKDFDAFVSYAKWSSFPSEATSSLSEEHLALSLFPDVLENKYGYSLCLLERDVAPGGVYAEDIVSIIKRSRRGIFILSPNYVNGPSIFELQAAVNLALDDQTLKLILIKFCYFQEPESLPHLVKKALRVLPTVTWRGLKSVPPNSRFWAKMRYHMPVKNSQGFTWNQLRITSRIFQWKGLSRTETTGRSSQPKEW

[6] = biological target: T2, human IL-18 binding protein (IL-18BP); test: cell-based or functional assay; remark: listed apart in the source
[7] = biological target: T4, IL-18 receptors on HEK-Blue IL-18 …; test: cell-based or functional assay; remark: listed apart in the source
[8] = biological target: T5, human IL-18 receptor alpha (IL-18Rα) (human, UniProt Q13478 19-329, limits assumed); test: Octet BLI
T5 construct: also called hu IL-18Ra; IL-18R alpha
T5 sequence (looked up): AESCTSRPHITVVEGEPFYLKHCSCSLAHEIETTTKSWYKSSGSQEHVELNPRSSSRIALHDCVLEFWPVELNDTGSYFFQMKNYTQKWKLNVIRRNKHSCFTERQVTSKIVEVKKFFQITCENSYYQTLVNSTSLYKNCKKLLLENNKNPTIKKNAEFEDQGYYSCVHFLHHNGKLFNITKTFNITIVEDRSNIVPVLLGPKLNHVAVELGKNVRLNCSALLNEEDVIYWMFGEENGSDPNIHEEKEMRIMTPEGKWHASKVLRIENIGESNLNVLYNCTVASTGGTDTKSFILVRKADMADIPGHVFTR
Procedure: as §1

[9] = biological target: T6, human IL-18R alpha/beta pair (IL-18Rab) (human, UniProt Q13478 19-329; O95256 20-356); test: Octet BLI
T6 construct: also called hu IL-18Rab
T6 sequence (looked up) 1: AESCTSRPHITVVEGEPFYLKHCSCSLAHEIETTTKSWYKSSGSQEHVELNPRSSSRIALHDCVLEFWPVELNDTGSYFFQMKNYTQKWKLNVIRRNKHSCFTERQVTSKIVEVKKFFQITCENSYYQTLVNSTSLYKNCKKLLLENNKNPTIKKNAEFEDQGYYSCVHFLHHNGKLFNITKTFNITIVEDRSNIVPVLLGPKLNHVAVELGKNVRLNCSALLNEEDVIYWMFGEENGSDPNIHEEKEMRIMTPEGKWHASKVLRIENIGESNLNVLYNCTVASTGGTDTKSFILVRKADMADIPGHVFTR
T6 sequence (looked up) 2: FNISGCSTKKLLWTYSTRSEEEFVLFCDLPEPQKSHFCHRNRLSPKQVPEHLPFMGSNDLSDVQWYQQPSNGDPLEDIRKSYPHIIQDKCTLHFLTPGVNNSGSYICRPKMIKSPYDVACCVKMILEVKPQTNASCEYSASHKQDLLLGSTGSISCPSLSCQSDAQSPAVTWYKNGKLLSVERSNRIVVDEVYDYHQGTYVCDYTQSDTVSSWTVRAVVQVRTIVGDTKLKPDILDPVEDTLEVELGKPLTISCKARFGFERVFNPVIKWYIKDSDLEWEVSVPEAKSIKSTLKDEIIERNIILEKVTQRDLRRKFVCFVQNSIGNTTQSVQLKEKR
Procedure: as §1

[10] = biological target: T2, human IL-18 binding protein (IL-18BP); test: Octet BLI; remark: listed apart in the source
Procedure: as §1

[11] = biological target: T2, human IL-18 binding protein (IL-18BP); test: cell-based or functional assay; remark: listed apart in the source
[12] = biological target: T4, IL-18 receptors on HEK-Blue IL-18 …; test: cell-based or functional assay; remark: listed apart in the source

B1: IL-18 variant G3N, E6Y, K53Q, D54W, S55R, N91T, R104P (ligand)
chain: YFNKLYSKLSVIRNLNDQVLFIDQGNRPLFEDMTDSDMRDNAPRTIFIISMYQWRQPRGMAVTISVKSEKISTLSSENKIISFKEMNPPDTIKDTKSDIIFFQPSVPGHDNKMQFESSSYEGYFLASEKERDLFKLILKKEDELGDRSIMFTVQNED
[1]
  Ratio (-BP/+BP), DF-1000005: 1.02
  Ratio (-BP/+BP), DF-5000006: 0.93
  Ratio (-BP/+BP), DF-25000007: 1.03

B2: IL-18 variant G3T, K53S (ligand)
chain: YFTKLESKLSVIRNLNDQVLFIDQGNRPLFEDMTDSDMRDNAPRTIFIISMYSDSQPRGMAVTISVKSEKISTLSSENKIISFKEMNPPDNIKDTKSDIIFFQRSVPGHDNKMQFESSSYEGYFLASEKERDLFKLILKKEDELGDRSIMFTVQNED
[2]
  Kd: 18 nM
  koff: 0.00474 s⁻¹
  kon: 263000 M⁻¹ s⁻¹
[3]
  EC50 pM, IFN gamma expression in PBMCs: 368 pM
[4]
  HEK-Blue Ec50 (pM), +IL-18BP (50 nM): 5.18 pM
[5]
  HEK-Blue Ec50 (pM), -IL-18BP: 2.5 pM

B3: IL-18 variant G3T, E6K, K53A (ligand)
chain: YFTKLKSKLSVIRNLNDQVLFIDQGNRPLFEDMTDSDMRDNAPRTIFIISMYADSQPRGMAVTISVKSEKISTLSSENKIISFKEMNPPDNIKDTKSDIIFFQRSVPGHDNKMQFESSSYEGYFLASEKERDLFKLILKKEDELGDRSIMFTVQNED
notes: also called G3T, K53A, E6K
[6]
  Fold Change (BP/NO BP), 50 nM BP: 2.79 fold
  Fold Change (BP/NO BP), 300 nM BP: 35.2 fold
  HEK-Blue EC50 pM, +50 nM BP: 0.14 pM
  HEK-blue EC50 (pM) + 300 nM BP: 1.49 pM
[7]
  HEK-Blue EC50 pM, NO BP (50 nM BP run): 0.05 pM
  HEK-Blue EC50 pM, NO BP (300 nM BP run): 0.04 pM
[8]
  Kd: 10 nM
[9]
  Kd: 0.32 nM
[10]
  Kd: 6 nM
[11]
  HEK-Blue Activity Assay Ec50 (pM), +300 nM hu IL-18BP: 1.49 pM
[12]
  HEK-Blue Activity Assay Ec50 (pM), -hu IL-18BP: 0.04 pM

B4: IL-18 variant G3V, E6K, K53A (ligand)
chain: YFVKLKSKLSVIRNLNDQVLFIDQGNRPLFEDMTDSDMRDNAPRTIFIISMYADSQPRGMAVTISVKSEKISTLSSENKIISFKEMNPPDNIKDTKSDIIFFQRSVPGHDNKMQFESSSYEGYFLASEKERDLFKLILKKEDELGDRSIMFTVQNED
notes: also called G3V, K53A, E6K
[6]
  Fold Change (BP/NO BP), 50 nM BP: 8.67 fold
  Fold Change (BP/NO BP), 300 nM BP: 74.8 fold
  HEK-Blue EC50 pM, +50 nM BP: 0.33 pM
  HEK-blue EC50 (pM) + 300 nM BP: 1.71 pM
[7]
  HEK-Blue EC50 pM, NO BP (50 nM BP run): 0.04 pM
  HEK-Blue EC50 pM, NO BP (300 nM BP run): 0.02 pM
[8]
  Kd: 52 nM
[9]
  Kd: 0.27 nM
[10]
  Kd: 19 nM
[11]
  HEK-Blue Activity Assay Ec50 (pM), +300 nM hu IL-18BP: 1.71 pM
[12]
  HEK-Blue Activity Assay Ec50 (pM), -hu IL-18BP: 0.02 pM
